Here are results for six molecules from patent publication US20220281965A1 (AstraZeneca / MedImmune, published 2022).

Assay [1] has as its target T1, human TGFβ1 (R&D Systems 240-B) (human, UniProt P01137 279-390).
T1 construct: Bought protein, adsorbed on the ELISA plate
In words: antigen presentation ELISA: human TGFβ1 adsorbed on a Nunc Maxisorp plate, titration of IgG, anti-human IgG-HRP, TMB, absorbance at 450 nm. The method, then:
(§1) Purified humanized IgGs were screened for binding to human GDF-15 over two further members of the same family, TGFβ1 (R&D Systems 240-B) and BMP7 (R&D Systems 354-BP/CF), using a standard antigen presentation ELISA. Human GDF-15, human TGFβ1 or human BMP7 were adsorbed onto a Nunc Maxisorp™ plate. After removal of excess unbound antigen, a titration of test IgG was added to the plate. After a 1-hour incubation, the unbound IgG was removed. The extent of IgG binding was determined by addition of an anti-human IgG antibody conjugated to the horseradish peroxidase (HRP) enzyme and measuring the optical absorbance at 450 nm of the product of its reaction with the substrate TMB.

A further assay concerns the target T2, mature human GDF-15 (human, UniProt Q99988 197-308).
T2 construct: Homodimer; also called hGDF-15; recombinant hu-GDF15
T2 sequence: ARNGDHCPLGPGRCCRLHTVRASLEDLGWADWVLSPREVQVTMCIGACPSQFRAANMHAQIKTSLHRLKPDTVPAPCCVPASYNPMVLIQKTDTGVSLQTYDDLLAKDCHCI
Nature of the assay: HTRF epitope competition; competitor DyLight 650 labelled Antibody A; Europium labelled human GDF-15. The text has this: Antibodies from the immunizations with human GDF-15, in the form of crude supernatants from the immunization or in the form of purified IgGs, were chosen on the basis that they bind and compete with an epitope recognized by a control anti-GDF-15 antibody “Antibody A”. A biochemical epitope competition format was applied using an HTRF epitope competition assay that measured the binding of DyLight 650 labelled Antibody A to Europium labelled human GDF-15 (Prospec). In the absence of Antibody A binding, there is no detectable FRET fluorescence. When Antibody A binds to GDF-15, the resulting physical proximity between the secondary reagent donor/acceptor pair results in FRET. Competition with an antibody that recognizes the same or similar epitope will result in a dose dependent reduction of the FRET signal. FRET was measured ratiometrically [665 nm (acceptor)/620 nm (donor)] on an Envision plate reader, and IC₅₀ values were determined by curve fitting the data to a four parameter logistic equation using PRISM 6® software (Graphpad).

Assay [2] deals with T3, human BMP7 (R&D Systems 354-BP/CF) (human, UniProt P18075 293-431).
T3 construct: Bought protein, adsorbed on the ELISA plate
T3 sequence (looked up): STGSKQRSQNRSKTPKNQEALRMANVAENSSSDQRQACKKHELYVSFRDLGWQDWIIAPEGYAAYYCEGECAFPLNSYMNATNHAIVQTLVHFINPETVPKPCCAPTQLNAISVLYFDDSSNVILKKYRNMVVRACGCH
Nature of the assay: antigen presentation ELISA: human BMP7 adsorbed on a Nunc Maxisorp plate, titration of IgG, anti-human IgG-HRP, TMB, absorbance at 450 nm. The procedure:
as §1
A general note: An ELISA detects its analyte on a solid surface through an enzyme-linked reagent.

The target of assay [3] is T4, mature recombinant mouse GDF-15 with Flag and His tags (mouse, UniProt Q9Z0J7 189-303).
T4 construct: also called Flag tagged mouse GDF-15; not shown: FLAG and poly-His tags immediately C-terminal to the furin cleavage site (N-terminal on the mature protein)
T4 sequence: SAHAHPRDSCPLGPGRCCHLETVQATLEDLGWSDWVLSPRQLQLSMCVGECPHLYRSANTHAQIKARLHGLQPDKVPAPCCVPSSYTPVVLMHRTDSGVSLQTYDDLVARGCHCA
Nature of the assay: SPR Biacore 8K, biotinylated mouse GDF-15 on streptavidin C1 chip, Fab as analyte. The method, then:
(§2) The experiments were carried out using mature recombinant human GDF-15, human GDF-15 H202D variant, mouse GDF-15, and cynomolgus GDF-15 with an N-terminal Flag and His tag. All species were chemically biotinylated using EZ link Sulfo-NHS-LC-Biotin (Thermo).
(§3) Streptavidin was covalently immobilized to a C1 chip surface using standard amine coupling techniques at a concentration of 4 μg/ml in 10 mM Sodium acetate pH 4.5. Recombinant biotinylated GDF-15 species were titrated onto the streptavidin chip surface in HBS-EP+ buffer to enable Fab binding.
(§4) Multiple buffer-only injections were made under the same conditions to allow for double reference subtraction of the final sensorgram sets, which were analyzed using Biacore 8K Evaluation Software. The chip surface was fully regenerated with pulses of 50 mM NaOH.
(Surface plasmon resonance follows binding to a sensor surface in real time, without labels.)

The target in assay [4] is T5, mature recombinant human GDF-15 with an N-terminal Flag and His tag, biotinylated (human, UniProt Q99988 197-308, chemically biotinylated with EZ link Sulfo-NHS-LC-Biotin, sites not stated).
T5 construct: not shown: N-terminal Flag and His tags
T5 sequence: T2 sequence
In words: SPR Biacore 8K, 25 C, biotinylated GDF-15 on streptavidin C1 chip, Fab as analyte. The method, then:
as §2, §3, §4

Assay [5] addresses T6, mature recombinant human GDF-15 H202D variant with an N-terminal Flag and His tag, biotinylated (human, UniProt Q99988 197-308, chemically biotinylated with EZ link Sulfo-NHS-LC-Biotin, sites not stated).
T6 construct: also called Human H202D; not shown: N-terminal Flag and His tags
T6 chain: T2 sequence with H6D
The description is as above. The method, then: as §2, §3, §4

For assay [6], the target named is T7, mature recombinant cynomolgus GDF-15 with an N-terminal Flag and His tag, biotinylated (cynomolgus, UniProt G7PWZ3 197-308, chemically biotinylated with EZ link Sulfo-NHS-LC-Biotin, sites not stated).
T7 construct: not shown: N-terminal Flag and His tags
T7 sequence: T2 sequence with H6R, R21H, A54E, T63M, S64N, I112V
The assay is described as above. The procedure:
as §2, §3, §4

Another assay concerns the target T8, mouse GDF-15 (mouse, UniProt Q9Z0J7 189-303).
T8 construct: also called mGDF-15
T8 sequence: T4 sequence
In words: HTRF binding assay, biotinylated mouse GDF-15. The text has this:
(§5) Supernatants generated from the immunizations with human GDF-15 and purified IgGs were screened to identify IgGs with specific binding to human, cynomolgus, or mouse GDF-15. The HTRF (Homogeneous Time Resolved Fluorescence) assay is based on detection of a measurable FRET signal upon binding of a titration of test antibody to biotinylated human H202D GDF-15 variant, cynomolgus GDF-15 and mouse GDF-15. Europium cryptate (EuK) labelled Streptavidin and anti-human IgG XL665 (Cis Bio) were used as secondary detection reagents serving as energy donor and acceptor respectively. In the absence of test antibody binding, there is no detectable FRET fluorescence. When test antibody binds to GDF-15, the resulting physical proximity between the secondary reagent donor/acceptor pair results in FRET. FRET was measured ratiometrically [665 nm (acceptor)/620 nm (donor)] on an Envision plate reader, and data plotted using PRISM 6® software (Graphpad).
For orientation: In TR-FRET formats the signal depends on donor and acceptor labels being close together.

Assay [7] addresses T9, biotinylated cynomolgus GDF-15 (cynomolgus, UniProt G7PWZ3 197-308, biotinylated, sites not stated).
T9 construct: also called Cyno GDF-15
T9 sequence: T2 sequence with H6R, R21H, A54E, T63M, S64N, I112V
In words: HTRF binding assay, biotinylated antigen, titration of antibody.
Text: as §5

In assay [8] the target is T10, biotinylated human H202D GDF-15 variant (human, UniProt Q99988 197-308, biotinylated, sites not stated).
T10 construct: also called Human GDF-15 H202D
T10 chain: T2 sequence with H6D
Described as above.
Text: as §5

Positions count from the first letter of the chain named.

T1 sequence (P01137 279-390 limits assumed): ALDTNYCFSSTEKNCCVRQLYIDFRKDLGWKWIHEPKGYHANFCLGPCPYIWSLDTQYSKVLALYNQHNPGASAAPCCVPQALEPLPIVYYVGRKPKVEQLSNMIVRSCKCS

B1: AB1170247 (antibody, IgG1, V domains shown)
VH: QVQLVQSGSELKKPGASVKVSCKASGYTFTSYDINWVRQAPGQGLEWIGWIYPRDGISKYNEKFKGRATLTVDTSASTAYMELSSLRSEDTAVYYCAGTYDPAYFDYWGQGTTVTVSS
VL: EIVLTQSPATLSVSPGERATLSCRASQSISYYLHWYQQKPGQAPRLLIKYASQSISGVPDRFSGSGSGTDFTLKISRVEAEDFGVYYCQQSNSWPYTFGGGTKVEIK
notes: Humanized IgG1 TM; not shown: human immunoglobulin kappa light chain constant domain
A word on the IC50: it is the midpoint of a concentration-inhibition curve. As to B1, the binding result in assay [1] and in [2] was “no binding (tested: 5 µg/mL)” each time. In the assay with mature human GDF-15, this molecule returned an IC50 of 11.3 nM.

B2: AB1170247 Fab (Fab, V domains shown)
VH: B1 VH
VL: B1 VL
notes: Fab of the humanized antibody, expressed as in Spooner et al. 2015
One may read the Kd as the equilibrium constant for the complex coming apart. For orientation: koff means the first-order rate constant of dissociation. As usually defined, the kon is a measure of how fast the partners come together. With B2, the binding result in assay [3] is “no binding”. In addition, in [4], the Kd was determined as 9.24 nM, the koff was 0.0386 s⁻¹ and the kon came to 4.18e+06 M⁻¹ s⁻¹. In addition, in assay [5], the Kd worked out at 9.5 nM, the koff stood at 0.0385 s⁻¹ and the kon was determined as 4.06e+06 M⁻¹ s⁻¹. In addition, in assay [6], the Kd is 15 nM, the koff came out at 0.0686 s⁻¹ and the kon is 4.58e+06 M⁻¹ s⁻¹.

B3: AB1170245 (antibody, IgG1, V domains shown)
VH: EVQLVESGGGLVKPGGSLRLSCAASGFTFSSYAMSWVRQAPGKGLEWVAYISSGGDYIYYADTVKGRFTISRDNSKNTLYLQMNSLKTEDTAVYYCTRALVDNAYFDYWGQGTTVTVSS
VL: DIVLTQSPDSLAVSLGERATINCRASKSVSTSSYSYMHWYQQKPGQPPKLLIKYASYLEFGVPSRFSGSGSGTDFTLTISSLQPEDVATYYCQHSREFPWTFGGGTKVEIK
notes: as for B1
With B3, the binding result in assay [1] and in [2] was “no binding (tested: 5 µg/mL)” throughout. Also, the IC50 with mature human GDF-15 came to 2.23 nM.

B4: AB1170248 (antibody, IgG1, V domains shown)
VH: QVQLVQSGSELKKPGASVKVSCKASGYTFTDYNMDWVRQAPGKGLEWIGDINPYNGITIYNQKFKGRATLTVDKSTSTAYMELRSLRSDDTAVYYCAREEKLGTSFDYWGQGTTVTVSS
VL: DIQMTQSPSSLSASVGDRVTITCRASENIYSNLAWYQQKPGKAPKLLVYAATNLADGVPSRFSGSGSGTDFTLTISSLQPEDFATYYCQHFYGTPWTFGQGTKLEIK
notes: as for B1
Turning to B4, the binding result in [1] and in assay [2] was “no binding (tested: 5 µg/mL)” each time. Moreover, in the assay with mature human GDF-15, the IC50 turned out to be 1.58 nM.

B5: AB1170246 (antibody, IgG1, V domains shown)
VH: QVQLQESGPGLLKPSQTLSLTCTVSGFSLITSGLGVSWIRQPAGKGLEWLAHIYWDDDKRYNPSLKSRLTISKDTSKNQVSLKLSSVTAADTAVYYCARGGYDGYYDYWGQGTTVTVSS
VL: DVVMTQSPLSLPVTLGQPASISCRSSQSIVHSNGNTNLEWYLQKPGQSPQLLIYKVSNRLSGVPDRFSGSGSGTDFTLKISRVEAEDVGVYYCFQGSHVRTFGQGTKLEIK
notes: as for B1
For the molecule B5, the binding result in assay [1] and in assay [2] was “no binding (tested: 5 µg/mL)” throughout. In the assay with mature human GDF-15, this molecule yielded an IC50 of 4.99 nM.

B6: AB1170002 (antibody, V domains shown)
VH: QVTLKESGPGILQPSQTLSLTCSFSGFSLSTYGMGVGWIRQPSGKGLEWLANIWWNDDKYYNSALKSRLTISKDTSNNQVFLKISSVDTADTVTYYCAQVGYDWFAYWGQGTLVTVSS
VL: EIVLTQSPALMAASPGEKVTITCSVSSSISSSNLHWYQQKSETSPKPWIYGTSNLASGVPVRFSGSGSGTSYSLTISSMEAEDAATYYCQQCSSYPLTFGAGTKLELK
For B6, the binding result with mouse GDF-15 is reported as “no binding”; in [7], “binds”; in assay [8], “binds”. In the assay with mature human GDF-15, this molecule showed an IC50 of 6.1 nM.
